For this experiment, the system named is IL-18. In words: IL-18 levels in small intestine and serum after oral rhLF or bLF (ELISA). It counts as in vivo, mice. The procedure: Recombinant human lactoferrin and bovine lactoferrin were orally administered to mice, and the production of IL-18 in the small intestine was measured.
Mice were treated for three days daily with 65 mg/kg/day of rhLF, 300 mg/kg/day of rhLF or 300 mg/kg/day of bLF. For a control, mice were only administered the pharmaceutical carrier. Twenty-four hours following administration of the LF or control for 3 days, animals were weighed and blood and serum were collected. Serum was used for cytokine ELISA assays.
Also, at these time points, animals were sacrificed and the small intestinal tissue was removed for further analysis. Small intestinal epithelium was homogenized using a lysis buffer consisting of PBS, 1% Nonidet P-40, 0.5% sodium deoxycholate, and 0.1% sodium dodecyl sulphate containing 10 μg/ml PhenylMetheylsulfonyl fluoride. Homogenate was centrifuged at 15,000 rpm for 10 minutes and the supernatant stored at −80 C till it was tested for IL-18 levels.

Setting [1] is: oral 300 mg/kg/day for three days.
The mark [2] stands for this setting: oral 300 mg/kg/day for three days, 24 h after last dose.

B1: bLF: bovine lactoferrin, orally administered comparator (protein, UniProt P24627 20-708, looked up)
Lactotransferrin: APRKNVRWCTISQPEWFKCRRWQWRMKKLGAPSITCVRRAFALECIRAIAEKKADAVTLDGGMVFEAGRDPYKLRPVAAEIYGTKESPQTHYYAVAVVKKGSNFQLDQLQGRKSCHTGLGRSAGWIIPMGILRPYLSWTESLEPLQGAVAKFFSASCVPCIDRQAYPNLCQLCKGEGENQCACSSREPYFGYSGAFKCLQDGAGDVAFVKETTVFENLPEKADRDQYELLCLNNSRAPVDAFKECHLAQVPSHAVVARSVDGKEDLIWKLLSKAQEKFGKNKSRSFQLFGSPPGQRDLLFKDSALGFLRIPSKVDSALYLGSRYLTTLKNLRETAEEVKARYTRVVWCAVGPEEQKKCQQWSQQSGQNVTCATASTTDDCIVLVLKGEADALNLDGGYIYTAGKCGLVPVLAENRKSSKHSSLDCVLRPTEGYLAVAVVKKANEGLTWNSLKDKKSCHTAVDRTAGWNIPMGLIVNQTGSCAFDEFFSQSCAPGADPKSRLCALCAGDDQGLDKCVPNSKEKYYGYTGAFRCLAEDVGDVAFVKNDTVWENTNGESTADWAKNLNREDFRLLCLDGTRKPVTEAQSCHLAVAPNHAVVSRSDRAAHVKQVLLHQQALFGKNGKNCPDKFCLFKSETKNLLFNDNTECLAKLGGRPTYEEYLGTEYVTAIANLKKCSTSPLLEACAFLTR
As for B1, the “serum levels of IL-18 (in words)” value (oral 300 mg/kg/day) is listed as “did not increase”. For the same molecule, under setting [1], the “IL-18 Intestinal Extract % Increase Over Control” value is 373% and the “IL-18 Serum % Increase Over Control” value was −5%. Moreover, under setting [2], the “IL-18 level, Intestinal Extract” value is 4,515 pg and the “IL-18 level, Serum” value was determined as 134 pg. Further, for the setting “oral 300 mg/kg/day, compared with rhLF”, the “intestinal IL-18 levels (in words)” value was “lesser increase”.

Values taken from US20100137208A1, “INTRATUMORALLY ADMINISTERED LACTOFERRIN IN THE TREATMENT OF MALIGNANTNEOPLASMS AND OTHER HYPERPROLIFERATIVE DISEASES” (priority 2002, published 2010).
